The target in assay [1] is T1, Human CD3ε stalk-Fc(knob)-Avi/CD3δ stalk-Fc(hole) (human).
T1 construct: Heterodimer of CD3 delta and CD3 epsilon ectodomains fused to a human Fc domain with knob-into-hole modifications and C-terminal Avi-tag; also called human CD3ε/δ; CD3ε/δ
The experiment in a line: SPR (Biacore T200, 25°C), TCB format, same conditions. The text has this:
(§1) For affinity measurements, TCB molecules were captured on a C1 sensorchip (GE Healthcare) surface with immobilized anti-Fc (P329G) IgG (an antibody that specifically binds human IgG₁ Fc (P329G); “anti-PG antibody”—see WO 2017/072210, incorporated herein by reference). The experimental setup is schematically depicted in FIG. 3. Capture IgG was coupled to the sensorchip surface by direct immobilization of around 400 resonance units (RU) using the standard amine coupling kit (GE Healthcare Life Sciences).
(§2) To analyze the interaction to CD3, TCB molecules were captured for 80 s at 25 nM with a flow rate of 10 μl/min. Human and cynomolgus CD3ε stalk-Fc(knob)-Avi/CD3δ stalk-Fc(hole) (CD3ε/δ, see SEQ ID NOs 24 and 25 (human) and SEQ ID NOs 26 and 27 (cynomolgus)) were passed at a concentration of 0.122-125 nM with a flow rate of 30 μl/min through the flow cells for 300 s. The dissociation was monitored for 800 s.
(§3) Kinetic constants were derived using the Biacore T200 Evaluation Software (GE Healthcare Life Sciences), to fit rate equations for 1:1 Langmuir binding by numerical integration. The half-life (t_{1/2}) of the interaction was calculated using the formula t_{1/2}=ln 2/koff.

The target in assay [2] is T1, Human CD3ε stalk-Fc(knob)-Avi/CD3δ …. In words: SPR (Biacore T200, 25°C), TCB format, monovalent binding.
Text: as §1, §2, §3
In general terms: SPR reads the build-up and loss of mass on a sensor chip optically.

Assay [3] has the same target. The experiment in a line: SPR (Biacore T200, 25°C); TCB captured by anti-PG antibody on C1 chip, CD3ε/δ-Fc as analyte; 1:1 Langmuir fit.
Text: as §1, §2, §3

The target in assay [4] is T2, Cynomolgus CD3ε stalk-Fc(knob)-Avi/CD3δ stalk-Fc(hole) (cynomolgus).
T2 construct: Heterodimeric Fc fusion, soluble analyte in SPR; also called cynomolgus CD3ε/δ
The description is as above.
Text: as §1, §2, §3

Assay [5] has as its target T1, Human CD3ε stalk-Fc(knob)-Avi/CD3δ …. The experiment in a line: SPR (Biacore T200, 25°C); TCB captured by anti-PG antibody on C1 chip, CD3ε/δ-Fc as analyte; t1/2 = ln 2/koff.
Text: as §1, §2, §3

Assay [6] has as its target T2, Cynomolgus CD3ε stalk-Fc(knob)-Avi/CD3δ …. The description is as above.
Text: as §1, §2, §3

Assay [7] has as its target T1, Human CD3ε stalk-Fc(knob)-Avi/CD3δ …. The experiment in a line: SPR (Biacore T200); biotinylated human CD3ε/δ on SA chip, TCB injected at 2 µg/ml; normalised to anti-huIgG capture, relative to the non-stressed sample. The protocol: In order to assess the effect of the deamidation site removal and its effect on the stability of the antibodies, the anti-CD3 antibodies (in TCB format) were incubated for 14 days at 37° C., pH 7.4 and at 40° C., pH 6 and further analyzed by SPR for their binding capability to human CD3ε/δ. Samples stored at −80° C. pH 6 were used as reference. The reference samples and the samples stressed at 40° C. were in 20 mM His, 140 mM NaCl, pH 6.0, and the samples stressed at 37° C. in PBS, pH 7.4, all at a concentration of 1.0 mg/ml. After the stress period (14 days) samples in PBS were dialyzed back to 20 mM His, 140 mM NaCl, pH 6.0 for further analysis.
All SPR experiments were performed on a Biacore T200 instrument (GE Healthcare) at 25° C. with HBS-P+(10 mM HEPES, 150 mM NaCl pH 7.4, 0.05% Surfactant P20) as running and dilution buffer. Biotinylated human CD3ε/δ (see Example 3, SEQ ID NOs 24 and 25) as well as biotinylated anti-huIgG (Capture Select, Thermo Scientific, #7103262100) were immobilized on a Series S Sensor Chip SA (GE Healthcare, #29104992), resulting in surface densities of at least 1000 resonance units (RU). Anti-CD3 antibodies with a concentration of 2 μg/ml were injected for 30 s at a flow rate of 5 μl/min, and dissociation was monitored for 120 s. The surface was regenerated by injecting 10 mM glycine pH 1.5 for 60 s. Bulk refractive index differences were corrected by subtracting blank injections and by subtracting the response obtained from a blank control flow cell. For evaluation, the binding response 5 seconds after injection end was taken. To normalize the binding signal, the CD3 binding was divided by the anti-huIgG response (the signal (RU) obtained upon capture of the CD3 antibody on the immobilized anti-huIgG antibody). The relative binding activity was calculated by referencing each temperature stressed sample to the corresponding, non-stressed sample.

For assay [8] the target is unchanged. In words: SPR (Biacore T200, 25°C), monovalent IgG format, same conditions. As for the experimental part:
(§4) SPR experiments were performed as described in Example 3, with the monovalent IgG molecules prepared in Example 6.
(§5) To analyze the interaction to CD3, IgG molecules were captured for 240 s at 50 nM with a flow rate of 5 μl/min. Human and cynomolgus CD3ε stalk-Fc(knob)-Avi/CD3δ-stalk-Fc(hole) were passed at a concentration of 0.061-250 nM with a flow rate of 30 μl/min through the flow cells for 300 s. The dissociation was monitored for 800 s.

The target is the same in assay [9]. The experiment in a line: SPR (Biacore T200, 25°C); monovalent IgG captured by anti-PG antibody on C1 chip, CD3ε/δ-Fc as analyte; t1/2 = ln 2/koff. As for the experimental part: as §3, §4, §5
Assay [10] concerns the target T2, Cynomolgus CD3ε stalk-Fc(knob)-Avi/CD3δ …. Described as above. As for the experimental part:
as §3, §4, §5

Assay [11] addresses T1, Human CD3ε stalk-Fc(knob)-Avi/CD3δ …. In words: SPR (Biacore T200, 25°C); monovalent IgG captured by anti-PG antibody on C1 chip, CD3ε/δ-Fc as analyte; 1:1 Langmuir fit; triplicates. As for the experimental part: as §3, §4, §5
The target in assay [12] is T2, Cynomolgus CD3ε stalk-Fc(knob)-Avi/CD3δ …. Described as above. As for the experimental part:
as §3, §4, §5

The results in this text go back to patent publication US20240018240A1 (Hoffmann-La Roche, published 2024).

Changes are numbered by the printed parent chain. Names and notes keep the numbering of the source. Some results are limits rather than exact numbers.

B1: TYRP1 T-cell bispecific antibody (TCB) comprising anti-CD3 antibody P035.093 (bispecific antibody, human IgG1, kappa, L234A L235A)
heavy 1: not shown
heavy 2: QVQLVQSGAEVKKPGASVKVSCKASGFNIKDYFLHWVRQAPGQGLEWMGWINPDNGNTVYAQKFQGRVTMTADTSTSTVYMELSSLRSEDTAVYYCTRRDYTYEKAALDYWGQGTLVTVSSASTKGPSVFPLAPSSKSTSGGTAALGCLVEDYFPEPVTVSWNSGALTSGVHTFPAVLQSSGLYSLSSVVTVPSSSLGTQTYICNVNHKPSNTKVDEKVEPKSCDKTHTCPPCPAPEAAGGPSVFLFPPKPKDTLMISRTPEVTCVVVDVSHEDPEVKFNWYVDGVEVHNAKTKPREEQYNSTYRVVSVLTVLHQDWLNGKEYKCKVSNKALGAPIEKTISKAKGQPREPQVCTLPPSRDELTKNQVSLSCAVKGFYPSDIAVEWESNGQPENNYKTTPPVLDSDGSFFLVSKLTVDKSRWQQGNVFSCSVMHEALHNHYTQKSLSLSP
light 1: DIQMTQSPSSLSASVGDRVTITCRASGNIYNYLAWYQQKPGKVPKLLIYDAKTLADGVPSRFSGSGSGTDFTLTISSLQPEDVATYYCQHFWSLPFTFGQGTKLEIKRTVAAPSVFIFPPSDRKLKSGTASVVCLLNNFYPREAKVQWKVDNALQSGNSQESVTEQDSKDSTYSLSSTLTLSKADYEKHKVYACEVTHQGLSSPVTKSFNRGEC
light 2: EVQLLESGGGLVQPGGSLRLSCAASGFTFSSYAMNWVRQAPGKGLEWVSRIRSKYNNYATYYADSVKGRFTISRDDSKNTLYLQMNSLRAEDTAVYYCVRASNFPASYVSYFAYWGQGTLVTVSSASVAAPSVFIFPPSDEQLKSGTASVVCLLNNFYPREAKVQWKVDNALQSGNSQESVTEQDSKDSTYSLSSTLTLSKADYEKHKVYACEVTHQGLSSPVTKSFNRGEC
notes: 2+1 IgG CrossFab, inverted, with charge modifications; human IgG1 Fc with knob-into-hole and P329G LALA; also called P035.093 (in TCB format); TYRP1 TCB P035.093
The Kd is the concentration at which binding is half-saturated. Read a high Kd as a looser complex. For orientation: koff means the first-order rate constant of dissociation. Low readings indicate slow dissociation, high ones fast dissociation. The term kon denotes the second-order rate constant of association. For B1, in assay [1], the “fold increase of affinity compared to CD3orig and CD3opt” value was not above 10 fold. Besides, the “fold higher binding half-life than CD3orig and CD3opt” value in assay [2] was not above 4 fold. In assay [3], this molecule showed a dissociation constant (Kd) of 0.41 nM, a koff of 0.00153 s⁻¹ and an association rate constant (kon) of 3.75e+06 M⁻¹ s⁻¹. Also, in assay [4], the Kd worked out at 0.21 nM, the koff worked out at 0.00104 s⁻¹ and the on-rate constant (kon) stood at 4.89e+06 M⁻¹ s⁻¹. This molecule also yielded a t1/2 in assay [5] of 7.55 min. Moreover, the t1/2 in [6] was 11.1 min. Moreover, in assay [7], the “binding activity [%], 2 weeks at pH 6.0/40°C” value stood at 97% and the “binding activity [%], 2 weeks at pH 7.4/37°C” value is 95%.

B2: anti-CD3 antibody P035.093 in monovalent human IgG1 format (antibody)
heavy: not shown
chain: DKTHTCPPCPAPEAAGGPSVFLFPPKPKDTLMISRTPEVTCVVVDVSHEDPEVKFNWYVDGVEVHNAKTKPREEQYNSTYRVVSVLTVLHQDWLNGKEYKCKVSNKALGAPIEKTISKAKGQPREPQVCTLPPSRDELTKNQVSLSCAVKGFYPSDIAVEWESNGQPENNYKTTPPVLDSDGSFFLVSKLTVDKSRWQQGNVFSCSVMHEALHNHYTQKSLSLSP
light: B1 light 2
notes: also called P035.093 (in monovalent IgG format)
Turning to B2, the “fold increase of affinity compared to CD3orig” value in assay [8] was not above 10 fold. In addition, the t1/2 in assay [9] was determined as 8.25 min. For the same molecule, the t1/2 in [10] was found to be 11.8 min. Moreover, in assay [11], the Kd was determined as 0.456 nM, the koff stood at 0.0014 s⁻¹ and the on-rate (kon) was determined as 3.08e+06 M⁻¹ s⁻¹. Further, in [12], the Kd worked out at 0.224 nM, the koff was 0.000981 s⁻¹ and the kon is 4.38e+06 M⁻¹ s⁻¹.

B3: TYRP1 T-cell bispecific antibody (TCB) comprising anti-CD3 antibody CD3opt (bispecific antibody, human IgG1, kappa, L234A L235A)
heavy 1: not shown
heavy 2: B1 heavy 2
light 1: B1 light 1
light 2: B1 light 2 with T28Q, A101H, S102T, N103T, A106S, F112Y, A113G
notes: 2+1 IgG CrossFab, inverted, with charge modifications; human IgG1 Fc with knob-into-hole and P329G LALA; also called CD3opt (in TCB format)
As to B3, in [3], the dissociation constant Kd was found to be 4.3 nM, the dissociation rate constant (koff) came to 0.00621 s⁻¹ and the kon was 1.44e+06 M⁻¹ s⁻¹. In assay [4], the Kd came to 0.86 nM, the koff amounted to 0.0023 s⁻¹ and the kon came out at 2.67e+06 M⁻¹ s⁻¹. Also, the t1/2 in assay [5] worked out at 1.86 min. The molecule further registered a t1/2 in assay [6] of 5.02 min. Further, in assay [7], the “binding activity [%], 2 weeks at pH 6.0/40°C” value came out at 97% and the “binding activity [%], 2 weeks at pH 7.4/37°C” value came out at 92%.

B4: anti-CD3 antibody CD3orig in monovalent human IgG1 format (antibody)
heavy: not shown
chain: B2 chain
light: B1 light 2 with S31T, A101H, S102G, P105G, A106N, Y111W
notes: also called CD3orig (in monovalent IgG format)
In the case of B4, in assay [9], the t1/2 was 3.98 min. Further, in assay [11], the affinity, expressed as Kd, was 4.94 nM; the koff stood at 0.0029 s⁻¹; the on-rate (kon) turned out to be 587000 M⁻¹ s⁻¹.

B5: TYRP1 T-cell bispecific antibody (TCB) comprising anti-CD3 antibody CD3orig (bispecific antibody, human IgG1, kappa, L234A L235A)
heavy 1: not shown
heavy 2: B1 heavy 2
light 1: B1 light 1
light 2: B1 light 2 with S31T, A101H, S102G, P105G, A106N, Y111W
notes: 2+1 IgG CrossFab, inverted, with charge modifications; human IgG1 Fc with knob-into-hole and P329G LALA; also called CD3orig (in TCB format)
Consider B5, for which, in [3], the Kd is 6.54 nM, the koff amounted to 0.00338 s⁻¹ and the kon was 517000 M⁻¹ s⁻¹. The molecule also displayed a t1/2 in assay [5] of 3.42 min. Also, in [7], the “binding activity [%], 2 weeks at pH 6.0/40°C” value worked out at 95% and the “binding activity [%], 2 weeks at pH 7.4/37°C” value came to 65%.
